Source: patent US20230143604A1, “QW DOSING OF GIP RECEPTOR AGONIST PEPTIDE COMPOUNDS AND USES THEREOF” (TAKEDA PHARMACEUTICAL COMPANY LIMITED, priority 2020, published 2023)
Starred links: 1 amine or outer side, 2 acyl side, 3 side chain; linkers in the order of their positions; H or OH if unused. Non-standard residues stand in square brackets, D forms with d. Groups on a side chain read outwards from the residue. No end group written: not given here. *: point of attachment. C18 diacid = O=C(O)CCCCCCCCCCCCCCCCC(=O)*; C17 diacid = O=C(O)CCCCCCCCCCCCCCCC(=O)*; γGlu = O=C(O)[C@H](CCC(=O)[*:2])N[*:1]; NMeY = CN[C@@H](Cc1ccc(O)cc1)C(=O)O; AEEA = NCCOCCOCC(=O)O; Aib = CC(C)(N)C(=O)O

T1: full-length human GIPR with an N-terminal FLAG tag (human, UniProt P48546 22-466)
T1 sequence (looked up): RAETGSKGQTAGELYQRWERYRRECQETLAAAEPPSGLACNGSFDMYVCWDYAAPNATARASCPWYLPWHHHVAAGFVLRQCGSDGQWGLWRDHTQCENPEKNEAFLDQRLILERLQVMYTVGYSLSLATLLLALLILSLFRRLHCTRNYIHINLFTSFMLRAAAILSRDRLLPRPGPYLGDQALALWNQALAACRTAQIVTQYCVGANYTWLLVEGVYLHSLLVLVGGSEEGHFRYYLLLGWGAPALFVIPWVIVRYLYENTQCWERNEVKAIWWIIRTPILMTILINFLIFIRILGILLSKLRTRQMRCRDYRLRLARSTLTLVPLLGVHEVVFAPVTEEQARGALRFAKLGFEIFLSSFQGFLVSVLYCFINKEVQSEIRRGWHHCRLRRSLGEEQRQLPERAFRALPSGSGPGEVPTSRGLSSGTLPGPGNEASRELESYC


How the values were obtained:
[1] = target: full-length human GLP-1R with an N-terminal FLAG tag (human, UniProt P43220 24-463); test: cell-based or functional assay
[2] = target: T1, full-length human GIPR with an …; test: cell-based or functional assay

| Binder | Human GLP1R cAMP EC50, HEK293T [1] [nM] | Human GIPR cAMP EC50, HEK293T [2] [nM] |
| --- | --- | --- |
| [NMeY][Aib]EGTFISDYSI[Aib]K([AEEA-AEEA-γGlu-γGlu-C17 diacid])DR[Aib]AQ[Aib]NFVNWLLAQRPSSGAPPPS-NH2 [Compound No. 14] | 172 | 0.0003 |
| Y[Aib]EGTFISDYSIALDKAAQ[Aib]K([AEEA-AEEA-γGlu-γGlu-C18 diacid])FVEWLLAQRG-OH [Compound No. 154] | 8.91 | 0.0003 |
| Y[Aib]EGTFISDYSI[Aib]LDR[Aib]AQ[Aib]K([AEEA-AEEA-γGlu-γGlu-C18 diacid])FVNWLLAQRG-OH (not fully specified (N-terminus)) [Compound No. 141] | 5.25 | 0.0005 |
| [NMeY][Aib]EGTFISDYSIALDR[Aib]K([AEEA-AEEA-γGlu-C17 diacid])Q[Aib]DFVNWLLAQRPSSGAPPPS-NH2 [Compound No. 25] | 145 | 0.0019 |
| Y[Aib]EGTFISDYSIALDKIAQQK([AEEA-AEEA-γGlu-γGlu-C17 diacid])FVEWLLAQRG-OH [Compound No. 142] | 158 | 0.0004 |
| YXEGTFISDYSIXXDSAAQXDFVNWLLAQRG (N-terminus H; Aib at 2,13,20; Lys(G5-C18 diacid) at 14; C-terminal OH) [Compound No. 151] | 5.01 | 0.0003 |
| YXEGTFISDYSIXXDSXAQADFVNWLLAQRG (N-terminus H; Aib at 2,13,17; Lys(G5-C18 diacid) at 14; C-terminal OH) [Compound No. 152] | 33.1 | 0.0006 |
| Y[Aib]EGTFISDYSIALDKIAQRK([AEEA-AEEA-γGlu-γGlu-C17 diacid])FVEWLLAQRG-OH [Compound No. 143] | 4.9 | 0.0004 |
| [NMeY][Aib]EGTFISDYSI[Aib]K([AEEA-AEEA-γGlu-γGlu-C18 diacid])DR[Aib]AQ[Aib]NFVNWLLAQRPSSGAPPPS-NH2 [Compound No. 28] | 20.9 | 0.0003 |
| [NMeY][Aib]EGTFISDYSIAK([G5-γGlu-C18 diacid])DR[Aib]AQ[Aib]DFVNWLLAQRPSSGAPPPS-NH2 [Compound No. 24] | 191 | 0.0004 |
| Y[Aib]EGTFISDYSIALDKIAQ[Aib]K([AEEA-AEEA-γGlu-γGlu-C18 diacid])FVEWLLAQRG-OH [Compound No. 153] | 6.76 | 0.0003 |
| [NMeY][Aib]EGTFISDYSIALDR[Aib]HQ[Aib]NFVNWLLAQK([AEEA-AEEA-γGlu-C18 diacid])PSSGAPPPS-NH2 [Compound No. 1] | 10.5 | 0.0004 |
| H-Y[Aib]EGTFISDYSIALDR[Aib]AQ[Aib]K([AEEA-AEEA-γGlu-γGlu-C17 diacid])FVNWLLAQRG-OH (SMILES CC[C@H](C)[C@H](NC(=O)[C@H](CO)NC(=O)[C@H](Cc1ccc(O)cc1)NC(=O)[C@H](CC(=O)O)NC(=O)[C@H](CO)NC(=O)[C@@H](NC(=O)[C@H](Cc1ccccc1)NC(=O)[C@@H](NC(=O)CNC(=O)[C@H](CCC(=O)O)NC(=O)C(C)(C)NC(=O)[C@@H](N)Cc1ccc(O)cc1)[C@@H](C)O)[C@@H](C)CC)C(=O)N[C@@H](C)C(=O)N[C@@H](CC(C)C)C(=O)N[C@@H](CC(=O)O)C(=O)N[C@@H](CCCNC(=N)N)C(=O)NC(C)(C)C(=O)N[C@@H](C)C(=O)N[C@@H](CCC(N)=O)C(=O)NC(C)(C)C(=O)N[C@@H](CCCCNC(=O)COCCOCCNC(=O)COCCOCCNC(=O)CC[C@H](NC(=O)CC[C@H](NC(=O)CCCCCCCCCCCCCCCC(=O)O)C(=O)O)C(=O)O)C(=O)N[C@@H](Cc1ccccc1)C(=O)N[C@H](C(=O)N[C@@H](CC(N)=O)C(=O)N[C@@H](Cc1c[nH]c2ccccc12)C(=O)N[C@@H](CC(C)C)C(=O)N[C@@H](CC(C)C)C(=O)N[C@@H](C)C(=O)N[C@@H](CCC(N)=O)C(=O)N[C@@H](CCCNC(=N)N)C(=O)NCC(=O)O)C(C)C) [Compound No. 140] | 3.98 | 0.0007 |
| [NMeY][Aib]EGTFISDYSIALDR[Aib]AQ[Aib]K([AEEA-AEEA-γGlu-γGlu-C18 diacid])FVNWLLAQRGGGGS-NH2 [Compound No. 21] | 34.7 | 0.0004 |
| Y[Aib]EGTFISDYSIALDK[Aib]AQAK([AEEA-AEEA-γGlu-γGlu-C18 diacid])FVEWLLAQRG-OH (N-terminus assumed; SMILES CC[C@H](C)[C@H](NC(=O)[C@H](CO)NC(=O)[C@H](Cc1ccc(O)cc1)NC(=O)[C@H](CC(=O)O)NC(=O)[C@H](CO)NC(=O)[C@@H](NC(=O)[C@H](Cc1ccccc1)NC(=O)[C@@H](NC(=O)CNC(=O)[C@H](CCC(=O)O)NC(=O)C(C)(C)NC(=O)[C@@H](N)Cc1ccc(O)cc1)[C@@H](C)O)[C@@H](C)CC)C(=O)N[C@@H](C)C(=O)N[C@@H](CC(C)C)C(=O)N[C@@H](CC(=O)O)C(=O)N[C@@H](CCCCN)C(=O)NC(C)(C)C(=O)N[C@@H](C)C(=O)N[C@@H](CCC(N)=O)C(=O)N[C@@H](C)C(=O)N[C@@H](CCCCNC(=O)COCCOCCNC(=O)COCCOCCNC(=O)CC[C@H](NC(=O)CC[C@H](NC(=O)CCCCCCCCCCCCCCCCC(=O)O)C(=O)O)C(=O)O)C(=O)N[C@@H](Cc1ccccc1)C(=O)N[C@H](C(=O)N[C@@H](CCC(=O)O)C(=O)N[C@@H](Cc1c[nH]c2ccccc12)C(=O)N[C@@H](CC(C)C)C(=O)N[C@@H](CC(C)C)C(=O)N[C@@H](C)C(=O)N[C@@H](CCC(N)=O)C(=O)N[C@@H](CCCNC(=N)N)C(=O)NCC(=O)O)C(C)C) [Compound No. 155] | 85.1 | 0.0008 |
| [NMeY][Aib]EGTFISDYSI[Aib]LDRK([AEEA-AEEA-γGlu-γGlu-C18 diacid])AQ[Aib]NFVNWLLAQRPSSGAPPPS-NH2 [Compound No. 26] | 38.9 | 0.0003 |
| YXEGTFISDYSIAXDRXAQXDFVEWLLAQRG (N-terminus H; Aib at 2,17,20; Lys(G5-C18 diacid) at 14; C-terminal OH) [Compound No. 144] | 15.1 | 0.0009 |
| YXEGTFISDYSIXXDSXAQXDFVNWLLAQRG (N-terminus H; Aib at 2,13,17,20; Lys(G5-C18 diacid) at 14; C-terminal OH) [Compound No. 150] | 13.5 | 0.0004 |
| YXEGTFISDYSIXXDRAAQADFVEWLLAQRG (N-terminus H; Aib at 2,13; Lys(G5-C18 diacid) at 14; C-terminal OH) [Compound No. 148] | 8.71 | 0.0004 |
| YXEGTFISDYSIXXDRAAQXDFVEWLLAQRG (N-terminus H; Aib at 2,13,20; Lys(G5-C18 diacid) at 14; C-terminal OH) [Compound No. 145] | 9.33 | 0.0018 |
| YXEGTFISDYSIXXDRXAQADFVEWLLAQRG (N-terminus H; Aib at 2,13,17; Lys(G5-C18 diacid) at 14; C-terminal OH) [Compound No. 146] | 7.08 | 0.0008 |
| YXEGTFISDYSIAXDRXAQADFVEWLLAQRG (N-terminus H; Aib at 2,17; Lys(G5-C18 diacid) at 14; C-terminal OH) [Compound No. 149] | 15.8 | 0.0007 |
| YXEGTFISDYSIXXDRXAQRDFVEWLLAQRG (N-terminus H; Aib at 2,13,17; Lys(G5-C18 diacid) at 14; C-terminal OH) [Compound No. 147] | 1.66 | 0.0008 |
| [NMeY][Aib]EGTFISDYSIAK([G5-γGlu-C17 diacid])DR[Aib]AQ[Aib]DFVNWLLAQRPSSGAPPPS-NH2 [Compound No. 22] | 525 | 0.0005 |
| [NMeY][Aib]EGTFISDYSIALDRK([AEEA-AEEA-γGlu-C18 diacid])AQ[Aib]DFVNWLLAQRPSSGAPPPS-NH2 [Compound No. 23] | 50.1 | 0.0003 |
